Data published in the supplement of paper PMC12042874.
± gives the uncertainty stated by the source.

Experiment: amyloid nucleation score (Sup35N fusion, yeast selection) (log enrichment); library NNK3; higher = more nucleation; inactive = no reads after selection
In short: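 Peptides of 20 random codons fused to Sup35N were expressed in psi-negative yeast, induced 24 hours with 100 μM copper sulfate, then grown 7 days at 30°C on medium lacking adenine and uracil. Input and output plasmid inserts were Illumina-sequenced. Nucleation score is the DiMSum log enrichment of output over input reads, centred on the mode score of non-aggregating sequences, excluding sequences with under 100 input reads. Random libraries had three technical output replicates.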

Substance | amyloid nucleation score
SMNFLICMIWSIVS | 1.02 ± 0.21
FTESVASYELAQVVSRSMLC | inactive
CEGCTYMCSCI | 0.85 ± 0.1
AKMNYKLWRDVA | inactive
YFEVDNLRRIQRRLICLGPE | 0.891 ± 0.27
MPNLAFSG | 0.006 ± 0.3
TMWTTGTTPPRMISHT | inactive
GTRIFSRDVISSGFQGSICL | inactive
LLSLFFIHPTATRRTKVSRC | inactive
VWSVASYPSGPGKFCGGMTE | inactive
TCKVMSSGYYVLYLDVRV | inactive
GLGTAD | inactive
FVQSGLFFMCDGSCGLLRVF | inactive
AKVRLDGSIGEVHFMELVSY | inactive
TRPESETHGMMR | inactive
VFGRLFIQMPKLTINQGKFH | 1.83 ± 0.089
YIFVSRIIGVPFRLVQVTSG | inactive
FFVRH | inactive
YYLGLLTYRWGLRFFYLIVS | inactive
RYVSSLLSNLRGQKNCVSVL | inactive
FVVFIRDIICMVNNFMLMRM | inactive
QIVYSLILGDPPAASVWEKS | inactive
IVIRTSSDTNVRAAVQLRMN | inactive

Substance | amyloid nucleation score
FGELS | inactive
CWLPFVCCAQCLNRIDVVSR | 2.32 ± 0.066
MVFLVVVWFVKNGWKCVYGS | inactive
PSFFRKLFLPFASYLTMCGE | inactive
PFNPSYIFRLLYL | inactive
LSDYEDIAISFIKYRCSSLN | 1.42 ± 0.11
YLCTGQAGCAYMPRS | inactive
SSDIIHGNDVRSLVRRDRSL | inactive
SELRWYL | inactive
RTLVPGTHR | inactive
GGVRPVKYGSVWVYRFWDQC | inactive
RNNDDSVLMDMLCMKCRTWL | inactive
VNHVIQNLVSNRSTWGICCT | inactive
KNTSIK | inactive
HMGNKRLCYCSSR | -0.326 ± 0.87
MNWYRIFVVNFSCKRLYSVK | 1.64 ± 0.067
CSCQRPKAFQVQWNGG | 0.789 ± 0.14
DRVDIRATADELGLR | inactive
IRIKVRLHVSIYFNIFR | inactive
TDAYKLITFIFPCKYLVTVC | inactive
DGMTKFRWSCVRWVCG | inactive
LHICTLYREVVVAAQCS | inactive
YLLSIEYVNLAIVDNSWRMF | 1.04 ± 0.094

Substance | amyloid nucleation score
ISVFIRTCMWKFVVVPRGYW | inactive
TNFPLALSSRIPSASQISMQ | -0.547 ± 1.5
ITAVVVSDMYH | inactive
AFYCVSGIDYVS | inactive
GGEGHSEVRRKTPGITCACI | inactive
RILPYSGSALLISTGFYHR | inactive
LSSLVSFVITQLRLLMKTER | inactive
MAVSRK | inactive
LNVRSI | inactive
GNMKNHTMQFAEVVDGDFTM | inactive
YTPRFMISSWVLRDFIHGVS | inactive
VVEFRNFLGIM | inactive
SRRTIVNQSSF | inactive
CYIYLSMQYGEHANDIICLW | inactive
DRFFTSFSVCSPNDDKGLL | inactive
SIQCSK | inactive
LHTSTTPKTMKRRSQLSNQK | inactive
QLLHDGNLNVGIFMRYSQGR | 1.29 ± 0.093
RSGLHVEGLRSLHRGKVGPC | inactive
QYRRRVYDYVGCTRLWKNLW | -0.682 ± 0.93
DMSPRMTLSIKSA | inactive
VDFYAQ | inactive
YAKFCVSASYGVCQKLHGQF | 0.331 ± 0.37

Substance | amyloid nucleation score
SKECILVLAFDGCSGSSRWY | inactive
PKSFWVLSPIDLVIVVQVRQ | inactive
SSPSWFTYLVKQVALRSVTQ | 1.55 ± 0.1
LRRRVKSFSELYLAVTRVML | 0.286 ± 0.43
SHKFRMITIGPSSMIGALTC | inactive
AACHINNICKSLVL | inactive
EGVFHACDSTGT | -0.737 ± 1.5
TSYKKRFCGQYLMLNVNMSW | inactive
KQGVILTNRVYAFALGSSTH | inactive
NKMDSKYPGRLCLMWGW | 0.48 ± 0.19
NFLVVSNRYLYMVPNGHIKL | 2.96 ± 0.051
RGATC | inactive
CWIAMCGVVFNDLRMS | 2.81 ± 0.071
PIFHGD | inactive
VTQSNGVHKGAR | inactive
GILNT | inactive
WSIMSLNFRVDTHYSVHRYV | 1.95 ± 0.099
TSWCNSKPCEILYVGSMAKE | inactive
APFRMLAFGMWEALMAGSNS | inactive
VGGLSSDPTADISFVVVFQD | 0.089 ± 0.71
THLFRYKTASTDGCNESKAV | inactive
GHVSTCPNDGAAALSCLELF | inactive
EGSHVPIILGYREFCVFILT | inactive

Substance | amyloid nucleation score
MPCVMILYVIYSIY | 0.013 ± 0.59
IALSGRYRDSAACRDSCHVA | inactive
YFLLYTVNGGTASTLNYV | 2.15 ± 0.093
FCAVALFFNTSVSFIDRSLP | 1.66 ± 0.083
SPNNTTFSHYRFCLL | inactive
SMKSGSATCGIN | inactive
MFFELSLIISCFTEV | 1.42 ± 0.11
FCLVLGVWNLVPPGVKSMMQ | 0.889 ± 0.14
FGYVQVTKDPSFMCNYGMQS | inactive
GLQVYMIQRIETGM | inactive
TLGPKEGWLVSNWMWSRVII | inactive
CWFLVTMGYAGCFFSPVTQL | inactive
TFQRSGT | inactive
KVYSIYTNKNFGCFDYNWCI | inactive
DMMYVIRIFFLATEYSSLHP | inactive
YVLLVWDCRLFSVRISFRSV | inactive
CANCMNNVCVSCGCSLQLTL | 2.89 ± 0.054
LLISGCRSFMMAFSGCL | inactive
YWNMKNFCSTTIIHRKGRFG | 0.65 ± 0.16
PIIHGCDDLRDFFIARICIS | inactive
NFATRDNWYRVTQTLEDWIK | inactive
YSWVKEYLSLLSYYCNYRVD | inactive
WRRLRATISNGAWD | inactive

Substance | amyloid nucleation score
TSEVVQ | inactive
DYTGT | -0.191 ± 0.74
HGFSVTILTRVLTVGNSRRS | inactive
GIRHVGLVGTMSRKDWSYFR | inactive
EFYFATRMMF | 1.09 ± 0.092
LRCWYFLNMMMPYPPPSIKW | inactive
GCVSGRHDNTFRDYD | inactive
LCTKGYWFKAPNYLLSKLCF | inactive
SESYPTRLSGRKILTRALT | inactive
TRHSHLCS | inactive
AGFRKTMWCIQPVSFLLLKF | 1.74 ± 0.1
KSYWCNVGAIENT | inactive
VSMFMNRNQKSIKNRVRHYM | inactive
QGNAVHRDASSGWMNSAFDR | inactive
ICSVVIEGVFLRRLWDSRVS | inactive
IVYPFSGLMPDGAFRKEFDA | inactive
EAYDGKSSICSRCS | inactive
AIVCMHYQVVHCVKVSTCCY | inactive
INSEWIQSSAMFHPIMGRFR | -0.188 ± 1.5
HECVYYSSLTQSYVSVYIFT | 2.65 ± 0.077
FINMKIKQTYMRVFFWICAV | inactive
LGKSKFMAGQFLFCYSSVVL | 1.58 ± 0.12
VWVDFGFPVHMIIL | inactive

Substance | amyloid nucleation score
QGGGNIDSSVVTDSSDVVYS | inactive
PRYAVALSLD | inactive
CEKGLFLFSFSKFTSYPPGM | -0.435 ± 0.55
YRWGRVYPSAFSLCKLRYKL | inactive
AYIDNRSYVCDALKCLW | 2.92 ± 0.055
RDYKAHYLRCLYLWTMSLP | inactive
RSHRIF | inactive
LLRVCVSFRCIVNSCMRR | inactive
RVVPMVTVGKIRKNLMD | inactive
SAESKISIVWMEVRINNIFR | 1.67 ± 0.065
VSCDEMHKINFYLKANVVLV | inactive
QYICHDNCRCCQRNEKFRRK | inactive
FNVLMGTSYFAISEIASVPA | inactive
DVFSNMSWYYCNVIWNAYDM | 0.196 ± 0.52
MDAYRNHFMFTIIKFYSCES | inactive
FYNVRF | inactive
AVCCCGRNIHMRSCRPGTTL | 0.531 ± 0.16
ICPTWELNIRP | inactive
LIDNRRFRHLLTRNVFVSHH | inactive
GDHSDWRKRGSLLNGVVLCV | -0.5 ± 1.5
TDLGSVGGW | -0.206 ± 1.5
GVFGESS | inactive
